The text below walks through data of publication PMC11324738.

For one assay, the target named is GFP-LC3, Q9GZQ8. As to the kind of experiment: Co-immunoprecipitation. As to conditions: chain shown with the change; HEK293T cells co-transfected with GFP-LC3 and GPR50-FLAG constructs; IP anti-FLAG; n = 4 independent experiments; parent: est. 1.0; read off a plot.
Assay [1] addresses endogenous LC3 (human cells), Q9GZQ8. As to the kind of experiment: Proximity Ligation Assay. As to conditions: chain shown with the change; HeLa cells transfected with GPR50-FLAG constructs; antibodies against LC3 and FLAG; n = 178–208 cells per group from 3 independent experiments; parent: est. 25; read off a plot.
For assay [2], the target named is recombinant LC3 protein, Q9GZQ8. As to the kind of experiment: ELISA. The conditions noted are these: chain shown with the change, recombinant LC3 coated on the plate, biotin-labeled synthetic peptide, read off a plot. In general terms: An ELISA detects its analyte on a solid surface through an enzyme-linked reagent.

B1: GPR50-FLAG WT, Q13585 Y305A; W306A; T307A; I308A (protein)
chain: MGPTLAVPTPYGCIGCKLPQPEYPPALIIFMFCAMVITIVVDLIGNSMVILAVTKNKKLRNSGNIFVVSLSVADMLVAIYPYPLMLHAMSIGGWDLSQLQCQMVGFITGLSVVGSIFNIVAIAINRYCYICHSLQYERIFSVRNTCIYLVITWIMTVLAVLPNMYIGTIEYDPRTYTCIFNYLNNPVFTVTIVCIHFVLPLLIVGFCYVRIWTKVLAARDPAGQNPDNQLAEVRNFLTMFVIFLLFAVCWCPINVLTVLVAVSPKEMAGKIPNWLYLAAYFIAYFNSCLNAVIYGLLNENFRREAAAAFHAMRHPIIFFSGLISDIREMQEARTLARARAHARDQAREQDRAHACPAVEETPMNVRNVPLPGDAAAGHPDRASGHPKPHSRSSSAYRKSASTHHKSVFSHSKAASGHLKPVSGHSKPASGHPKSATVYPKPASVHFKADSVHFKGDSVHFKPDSVHFKPASSNPKPITGHHVSAGSHSKSAFSAATSHPKPTTGHIKPATSHAEPTTADYPKPATTSHPKPTAADNPELSASHCPEIPAIAHPVSDDSDLPESASSPAAGPTKPAASQLESDTIADLPDPTVVTTSTNDYHDVVVIDVEDDPDEMAV
Turning to B1, the ratio to parent in the assay with GFP-LC3, Q9GZQ8 is 0.65. Also, the response (DUO (+) spots/cell) in assay [1] turned out to be 5.5.

NAVIYGLLNENFRREAAAAFHAM [biotin-labeled synthetic GPR50 LIR peptide, a.a. 290-312 (WT), Q13585 Y305A; W306A; T307A; I308A]: the response is 0.38 OD (562 nm) in assay [2] (peptide 1 µM, parent: est. 0.47); 0.35 OD (562 nm) in assay [2] (peptide 2.5 µM, parent: est. 1.2); 0.38 OD (562 nm) in assay [2] (peptide 5 µM, parent: est. 3.2); 0.4 OD (562 nm) in assay [2] (peptide 10 µM, parent: est. 3.7); 0.4 OD (562 nm) in assay [2] (peptide 20 µM, parent: est. 3.7); 0.5 OD (562 nm) in assay [2] (peptide 40 µM, parent: est. 3.7).
